The source of these data is patent publication US20240417463A1 (ADAGENE PTE, published 2024).

The target of assay [1] is human CD47 on the cell surface (CEM, Raji and other human tumor cells, human RBCs) (human) (UniProt Q08722). As to the kind of experiment: flow cytometry, human RBCs, batch 2. In general terms: In flow cytometry, cells or beads pass a laser one at a time.
Assay [2] shares this target.
For assay [3], the target named is T1, hCD47-ECD/Fc protein (Sinobiological) (human, UniProt Q08722 19-139, biotinylated in the Octet assay, sites not stated).
T1 construct: extracellular domain; Bought protein; also called human CD47-Fc antigen; recombinant hCD47-ECD/Fc; not shown: Fc part of the bought fusion protein
Description: ELISA, coated hCD47-ECD/Fc. A general note: In an ELISA, binding on a coated surface is turned into a signal by an enzyme label.

The target of assay [4] is T1, hCD47-ECD/Fc protein (Sinobiological). As to the kind of experiment: ELISA, coated hCD47-ECD/Fc, second independent measurement.
Description: After blocking, the plates were washed three times and incubated with test antibodies with serial dilution at 37° C. for 1 hour. Then the plates were washed three times and incubated with HRP-conjugated anti-human Fab secondary antibody (Sigma) at 37° C. for 1 hour. After washing three times, the plates were incubated with TMB substrate for 15 minutes at room temperature. The reaction was stopped by the addition of H2SO4 stop solution. Absorbance at 450 nm was measured by a microplate reader. The data were analyzed by GraphPad Prism 7.0.
For assay [5] the target is unchanged. Description: BLI (Octet RED96), biotin-hCD47-ECD/Fc on SA sensors, 1:1 model. (Biolayer interferometry detects binding as a change in optical thickness at a sensor tip.)
Description: (§1) The binding affinity between antibodies and human CD47 was measured through Octet® RED96 System (ForteBio). […] After washing, the sensors were dipped into solutions containing test antibodies for 300 seconds to monitor the association phase, and then were dipped into running buffer for 300 seconds to monitor the dissociation phase. The acquired ForteBio data were processed with Data Acquisition software 7.1, and kinetic data were fitted to a 1:1 Langmuir binding model.
Assay [6] shares this target. Description: competition ELISA vs biotin-hSIRPα-ECD/His on coated hCD47-ECD/Fc, experiment 1.
Description: (§2) The plates were washed three times again and incubated with HRP-conjugated streptavidin at 37° C. for 1 hour. After washing, the plates were incubated with TMB substrate for 15 minutes at room temperature. The reaction was stopped by the addition of H2SO4 stop solution. Absorbance at 450 nm was measured by a microplate reader. The data was analyzed by GraphPad Prism 7.0.
For assay [7] the target is unchanged. Description: BLI (Octet RED96), biotin-hCD47-ECD/Fc on SA sensors, 1:1 model; ForteBio BLI affinity ranking, not ELISA.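 Further: test antibodies as analytes, 300 s association then 300 s dissociation in running buffer, with benchmark reference antibodies run as controls.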
Description: as §1
The target is the same in assay [8]. As to the kind of experiment: competition ELISA vs biotin-hSIRPα-ECD/His on coated hCD47-ECD/Fc, experiment 2.
Description: as §2
Assay [9] shares this target. Description: BLI (Octet RED96), biotin-hCD47-ECD/Fc on SA sensors, 1:1 model, second independent measurement.
Description: as §1

Residue numbers refer to the chain shown, from its start.

One may read the EC50 as the concentration that produces a half-maximal response. The low end stands for a more potent agent, the high end for a less potent agent. In general, Kd refers to the free concentration of one partner at which half of the binding sites on the other are occupied at equilibrium, for simple one-to-one binding. In general, koff refers to a measure of how fast the partners let go of each other. The term kon denotes the rate constant with which the complex forms. Higher therefore signals fast association. What is called IC50 is the concentration at which inhibition is half-maximal.

As to “Isotype control (RBC binding, Table 15) (antibody)”, in [1], the max MFI worked out at 105 MFI.

On to Neg ctrl (antibody), for which the % of events double-positive for CFSE-Raji and BMQC-Jurkat (cell clustering), antibody at 100 nM in [2] is 10.3%.

B1: TY25040 (antibody, V domains shown)
VH: QVQLVQSGAEVKKPGSSVKVSCKASGFTFSDYGIHWVRQAPGQGLEWIGRIYPSGGSTNYAQKFQGRVTITADKSTSTAYMELSSLRSEDTAVYYCARQRGYGRFAYWGQGTLVTVSS
VL: DIQLTQSPSSLSASVGDRVTITCSASSSVGYVYWYQQKPGKAPKLLIYDASSLESGVPSRFSGSGSGTDFTLTISSLQPEDFATYFCQQYTYAPFTFGQGTKVEIKR
B1: it took 0.46 nM to reach a half-maximal effect in [3] (EC50). For the same molecule, the response in assay [4] was half-maximal at 0.39 nM (EC50). In [5], this molecule came in with a Kd of 0.474 nM, a koff of 0.0002 s⁻¹ and a kon of 422000 M⁻¹ s⁻¹. The same molecule came in with an IC50 in [6] of 3.3 nM.

B2: TY25032 (antibody, V domains shown)
VH: EVQLVESGGGLVQPGGSLRLSCAASGFTFTSYGIHWVRQAPGKGLEWVSAISGSGGSTYYADSVKGRFTISRDNSKNTLYLQLNSLRAEDTAVYYCARSGHAYDFDYWGQGTLVTVSS
VL: DIQLTQSPSSLSASVGDRVTITCRASQSVDFYGISFLDWYQQKPGKAPKLLIYAASTLQSGVPSRFSGSGSGTDFTLTISSLQPEDFATYYCQQGGTSPWTFAQGTKVEIKR
In assay [7], B2 showed a Kd of 2.73 nM, a koff of 0.000806 s⁻¹ and a kon of 295000 M⁻¹ s⁻¹.

B3: TY21447 (antibody, V domains shown)
VH: EVQLVESGGGLVQPGGSLRLSCAASGFTFSNYAIHWVRQAPGKGLEWVSAISGSGSSTYYADSVKGRFTISRDNSKNTLYLQLNSLRAEDTAVYYCARRGSYGFGAFDYWGQGTLVTVSS
VL: DIQLTQSPSSLSASVGDRVTITCRASQTIGRYLNWYQQKPGKAPKLLIYDASNRATGIPSRFSGSGSGTDFTLTISSLQPEDFATYYCQQRYPWPYTFGQGTKVEIKR
Consider B3, for which the midpoint of the response in [3], the EC50, lay at 0.33 nM. This molecule also showed an IC50 in [8] of 3.12 nM.

B4: TY21449 (antibody, V domains shown)
VH: B3 VH with N31G
VL: B3 VL
B4 came in with an IC50 in assay [8] of 3.18 nM.

B5: TY25037 (antibody, V domains shown)
VH: QVQLVQSGAEVKKPGSSVKVSCKASGYSITSGHYWTWIRQAPGQGLEWIGGIIPVFGTPNYAQKFQGRVTITADKSTSTAYMELSSLRSEDTAVYYCASYGYGGAYFDVWGQGTLVTVSS
VL: DIQLTQSPSSLSASVGDRVTITCRASQSVDFHGISFLHWYQQKPGKAPKLLIYDASNRATGIPSRFSGSGSGTDFTLTISSLQPEDFATYYCVQGIQWPWTFGQGTKVEIKR
The molecule B5 had an EC50 in assay [3] of 0.95 nM. Besides, in assay [5], binding was put at a Kd of 0.611 nM, the dissociation rate constant (koff) was determined as 3.42e-05 s⁻¹ and the kon turned out to be 56000 M⁻¹ s⁻¹. Moreover, the IC50 in assay [6] is more than 100 nM.

B6: TY25038 (antibody, V domains shown)
VH: QVQLVQSGAEVKKPGSSVKVSCKASGFTFSRYAIHWVRQAPGQGLEWLGGIIPVFGTANYAQKFQGRVTITADKSTSTAYMELSSLRSEDTAVYYCARQGILGGFAYWGQGTLVTVSS
VL: DIQLTQSPSSLSASVGDRVTITCRASESVDFHGKSFLAWYQQKPGKAPKLLIYAASSLQSGVPSRFSGSGSGTDFTLTISSLQPEDFATYYCQQYLELPFTFGQGTKVEIKR
As to B6, in [3], the EC50 turned out to be 0.78 nM. Moreover, in assay [5], binding was characterised by a dissociation constant (Kd) of 4.47 nM, the koff is 0.00111 s⁻¹ and the kon was 249000 M⁻¹ s⁻¹. The IC50 in [6] was more than 100 nM.

B7: TY25031 (antibody, V domains shown)
VH: EVQLVESGGGLVQPGGSLRLSCAASGYSITSGYHWGWIRQAPGKGLEWIGRIYPSSGSTKYAQKFQGRVTISRDNSKNTLYLQLNSLRAEDTAVYYCARGVRGSYGWFDVWGQGTLVTVSS
VL: DIQLTQSPSSLSASVGDRVTITCSASSRVSYVYWYQQKPGKAPKLLIYAASTLQSGVPSRFSGSGSGTDFTLTISSLQPEDFATYYCQHYVSSPRVYTFGQGTKVEIKR
On to B7, for which the EC50 in assay [3] stood at 0.59 nM. The same molecule displayed an EC50 in [4] of 0.6 nM. In addition, in assay [5], binding was put at a Kd of 0.483 nM, the koff is 8.1e-05 s⁻¹ and the on-rate (kon) was determined as 168000 M⁻¹ s⁻¹. In assay [6], this molecule registered an IC50 of 4.55 nM.

B8: TY21451 (antibody, V domains shown)
VH: EVQLVESGGGLVQPGGSLRLSCAASGFTFSDYWIHWVRQAPGKGLEWVSGISGAGGSTYYADSVKGRFTISRDNSKNTLYLQLNSLRAEDTAVYYCARLGDYWGQGTLVTVSS
VL: DIQLTQSPSSLSASVGDRVTITCRASQGISSVLAWYQQKPGKAPKLLIYAASTLQSGVPSRFSGSGSGTDFTLTISSLQPEDFATYYCQQYYSIPFTFGQGTKVEIKR
In assay [8], B8 gave a half-inhibitory concentration (IC50) of more than 100 nM.

B9: TY25036 (antibody, V domains shown)
VH: QVQLVQSGAEVKKPGSSVKVSCKASGYTFTGYAIHWVRQAPGQGLEWIGWISPSSGSTKYAQKFQGRVTITADKSTSTAYMELSSLRSEDTAVYYCARYGYGPVFDYWGQGTLVTVSS
VL: DIQLTQSPSSLSASVGDRVTITCSASSSVTYIYWYQQKPGKAPKLLIYDASNRATGIPSRFSGSGSGTDFTLTISSLQPEDFATYYCQQYTSSPRGFTFGQGTKVEIKR
Consider B9, for which, in assay [3], the EC50 turned out to be 1.71 nM. In assay [5], this molecule had a Kd of less than 0.001 nM, a koff of less than 1e-07 s⁻¹ and a kon of 93700 M⁻¹ s⁻¹. Besides, in [6], the IC50 is more than 100 nM.

B10: TY25034 (antibody, V domains shown)
VH: EVQLVESGGGLVQPGGSLRLSCAASGYSITSGHYWNWIRQAPGKGLEWIGIISPSGGGTKYAQKFQGRVTISRDNSKNTLYLQLNSLRAEDTAVYYCARGARGYYALDYWGQGTLVTVSS
VL: EIVLTQSPATLSLSPGERATLSCRASQSVRGRLLAWYQQKPGQAPRLLIYAASSLQSGVPARFSGSGSGTDFTLTISSLEPEDFAVYYCAQYLELPYTFGQGTKVEIKR
As for B10, the EC50 in assay [3] came to 0.47 nM; in assay [4], 0.41 nM. The results for the Kd in assay [5] and in assay [9] were 0.826 nM and 0.87 nM, respectively. Also, the koff in [5] amounted to 0.000671 s⁻¹; in assay [9], 0.000704 s⁻¹. Moreover, the kon in assay [5] worked out at 813000 M⁻¹ s⁻¹; in assay [9], 809000 M⁻¹ s⁻¹. The IC50 in [6] is 3.53 nM.
